From the nanobody polyreactivity screen of Harvey et al. (2022)

Test: yeast display, Sf9 membrane polyspecificity reagent, FACS + sequencing; frameworks hold sequencing errors
Procedure, shortened: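 A nanobody's polyreactivity label depends on the gate it was sorted from. Yeast display cells were stained with 10% biotinylated, detergent-solubilized Sf9 membrane reagent for 1 hour at 4 °C, enriched on streptavidin microbeads and sorted by FACS. The low and high (top ~1%) gates were set on anti-HA fluorescence for expression and streptavidin fluorescence for reagent binding.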

| Sequence | polyreactivity (PSR sort gate) |
| --- | --- |
| QVQLVESGGGLVQAGGSLRLSCAASGFTFRGYAMGWYRQAPGKERELVADITSGGSTYYADSVKGRFTISRDNAKNTVYLQMNSLKPEDTAVYYFATDILYWSDYAYEGYYTLDYYWGQGTQVTVSS | high polyreactivity |
| QVQLVESGGGLVQAGGSLRLSCAASGFTFRGYVMGGYRQAPGKERELVAAITNIGTSTYYAHSVKGRFTISRDNAKNTVYVQMNSLKPEDTGVFFCAARLSTKFYYWGQVTQVTVSS | low polyreactivity |
| QVQLVESGGGLVQAGGSLRLSCAASGFTFRHNGMGWYIQAPGKERELVATITWSGGRTSYADSVKGRFTISRDNAKNTVYLQMNSLKPEDTAVYYCAARFFSYSQYAYNYWGQGTQVTVSS | high polyreactivity |
| QVQLVESGGGLVQAGGSLRLSCAASGFTFRIYAMGWYRQAPGKERELVAAITSSGGTTYYADSVKGRFTISRDNAKNTVYLQMNSLKPEDTAVYYCNVAGFKYYSWGTYDYWGQGTQVTVSS | high polyreactivity |
| QVQLVESGGGLVQAGGSLRLSCAASGFTFRIYAMGWYRQAPGKERELVAAITSVGSTYYADSVKGRFTISRDNAKNTVYLQMNRLKPEDTAVYYCNARATYYRFRYPYGYWGQGTQVTVSS | high polyreactivity |
| QVQLVESGGGLVQAGGSLRLSCAASGFTFRIYTMGWYRQAPGKERELVAAISSRGGSTYYADSVKGRFTISRDNAKNTVDLQMNSLKPEDTAVYYCAASGRVYSSGYDYWGQGTQVTVSS | high polyreactivity |
| QVQLVESGGGLVQAGGSLRLSCAASGFTFRKYAMGWYRQAPGKERELVASITSGGSTYYADSVKGRFTISRDNAKNTVYLQMNSLKPEDTAVYYCNAVKATLASGRLRGAYYYWGQGTQVTVSS | high polyreactivity |
| QVQLVESGGGLVQAGGSLRLSCAASGFTFRQYALGWYRQAPGKERELVAAISSGGSTYYADSVKGRFTISRDNAKNTVYLQMNSLKPEDTAVYYCNAVARYYVAYDMYWGQGTQVTVSS | high polyreactivity |
| QVQLVESGGGLVQAGGSLRLSCAASGFTFRQYSMGWYRQARGKERELVAGISSSGGSTRYADSVKGRFTISRDNAKNTVYFQMNSLKPEDTAVYYCAARIASHHYYYWGQVTQVTVSS | high polyreactivity |
| QVQLVESGGGLVQAGGSLRLSCAASGFTFRRNAMGWYRQAPGKERELVAAITGRGTGTYYADSVKGRFTISRDNAKNTVYLQMNSLKPEDTAVYYCNADPVRYLFTRYDYWGQGTQVTVSS | high polyreactivity |
| QVQLVESGGGLVQAGGSLRLSCAASGFTFRRNAMGWYRQAPGKERELVAVITTAGSTNYADSVKGRFTISRDNAKNTVYLQMTSLKPEDTAVYYCATDNGTRKRRYDYWGQGTQVNVSS | low polyreactivity |
| QVQLVESGGGLVQAGGSLRLSCAASGFTFRRNVMGWYRQAPGKERELVAAIRGSDGSTYYADSVKGRFTISRDNAKNTVYLQMNSLKPEDTAVYYCNVVGKGLYRKMGYWGQGTQVTVSS | high polyreactivity |
| QVQLVESGGGLVQAGGSLRLSCAASGFTFRRYAMGWYRQAPGKERELVAGITGRGGSTYYADSVKGRFTISRDNSKNTVYLQMNSLKPEDTAVYYCNKPRAARGYLTGQLDYWGQGTQVTVSS | high polyreactivity |
| QVQLVESGGGLVQAGGSLRLSCAASGFTFRRYAMGWYRQAPGKERVLVAAITRGSSTYYADSVKGRFTISRDNEKNTVYLQMNSLKPEDTAVYYCAAAGFWSRPSDYWGQGTQVTVSS | low polyreactivity |
| QVQLVESGGGLVQAGGSLRLSCAASGFTFRRYDMGWYRQAPGKERELVATINRGGSTDYADSVKGRFTISRDNAKNTVYLQMNSLKAEDTAVYYCATRYYSSRTWSEYYYWGQGTKVTVSS | high polyreactivity |
| QVQLVESGGGLVQAGGSLRLSCAASGFTFRRYTMGWYRQAPGKERELVAAISGRGGRTYYADSVKGRFTISRDNSKNTVYLQMNSLNPEDTAVYYCAADTQYWQSSKYDYWGQGTQVTVSS | high polyreactivity |

| Sequence | polyreactivity (PSR sort gate) |
| --- | --- |
| QVQLVESGGGLVQAGGSLRLSCAASGFTFRSYAMGWYRQAPGKERELVAGITWRGGRTYYADSVKGRFTISRDNAKNTVYLQMNSLKPEDTAVYYCAVRNASKNRKYYYWGQGTQVTVSS | high polyreactivity |
| QVQLVESGGGLVQAGGSLRLSCAASGFTFRSYTMGWYRQAPGKERELVAAITSRGTSTYYADSVKGRFTISRDNAKNTVYLQMNSLKPEDTAVYYCADPIYNGYASWQVYYWGQGTQVTVSS | high polyreactivity |
| QVQLVESGGGLVQAGGSLRLSCAASGFTFRTNAMGWYRQAPGKERELVAAISRSGGSTYYADSVKGRFTISRDNAKNTVYLQMNSLKPEDTAVYYCATVKVSHRRYDYWGQGTQVTLSS | high polyreactivity |
| QVQLVESGGGLVQAGGSLRLSCAASGFTFRTYAMGWYRQAPGKEREFVAAITTSGGSTYYADSVKGRFTISRDNAKNTVYLQMNSLKPEDTAVYYCAAKKATVVYRMEYWGQGTQVTVSS | high polyreactivity |
| QVQLVESGGGLVQAGGSLRLSCAASGFTFRTYAMGWYRQAPGKERELVAAISRSGGSTDYADSVKGRFTISRDTAKNTVYLQMNSLKPEHTAVYYCNAVRRAEYDYWGQGTQVTVSS | high polyreactivity |
| QVQLVESGGGLVQAGGSLRLSCAASGFTFRTYAMGWYRQAPGKVRELVAAITVSGGTYYADSVKGRFTISRDNAKNTVYLQMNSLKPEDTAVYYCTAKRFRTGLDYWGQGTQVTVSS | low polyreactivity |
| QVQLVESGGGLVQAGGSLRLSCAASGFTFRVYVMGWYREAPGKERELVAGITRTGRTYYADSVKGRFTISRDNAKNTVYLQMNSLKPEDTAVYYCAATRPYSHRDYYYWGQGTQVTVSS | high polyreactivity |
| QVQLVESGGGLVQAGGSLRLSCAASGFTFRWYTMGWYRQAPGKEREFVAAISSSGGSTYYADSVKGRFTISRDNAKNTVYLQMKSLKPEDTAVYYCARASRGYTYEYWGQGTQVTVSS | high polyreactivity |
| QVQLVESGGGLVQAGGSLRLSCAASGFTFRYNAMGWYRQAPGKERELVAAITNGGSTYADSVKGRFTISRDNAKNTVYLQMNSLKPEDTAVYYCAADYFVLTYYLWCYSPYKSFYYWGQGTQVTVSS | low polyreactivity |
| QVQLVESGGGLVQAGGSLRLSCAASGFTFRYNAMGWYRQAPGKERELVAGISWTSGSTYYADSVKGRFTISRDNAKNTVYLQMNSLKPEDTAVYYCAAYYRRDAALYGYWGQGTQVTVSS | high polyreactivity |
| QVQLVESGGGLVQAGGSLRLSCAASGFTFRYNAMGWYRQAPGKERELVATISWRGTSTYYADSVKGRFTISRDNAKNTVYLQMNSLKPEDTAVYYCAALGTVGYDYWGQGTQVTVSS | low polyreactivity |
| QVQLVESGGGLVQAGGSLRLSCAASGFTFRYNTMGGYRQAPGKERELVAAISSSGSSTYYADSVKGRFTISRDNAKNTVYLQMNSLKPEDTAVYYCNAVHRRTRYGYWGQGTQVTVSS | high polyreactivity |
| QVQLVESGGGLVQAGGSLRLSCAASGFTFRYYAMGWSRQAPGKERELVARITSGGSTNYADSVKGRFTISRDNAKNTVYLQMNSLKPEDTAVYYCAASPYRYWRMYSWGQGTQVTVSS | high polyreactivity |
| QVQLVESGGGLVQAGGSLRLSCAASGFTFRYYAMGWYRPAPGKEREFVAAISKSGGTTDYADSVKGRFTISRDNAKNTVYLQMSSLKPEDTAVYYCAKSGGRLWYVWRRYGYWGQGTQVTVSS | high polyreactivity |
| QVQLVESGGGLVQAGGSLRLSCAASGFTFRYYAMGWYRPAPGKERELVATISRGGSTNYADSVKGRFTISRDNAKNTVYLQMNSLKPEDTAVYYCNARIYKGYNYWGQGTQVTVSS | high polyreactivity |
| QVQLVESGGGLVQAGGSLRLSCAASGFTFRYYAMGWYRQAPGKEREFVAAISWDGGITYYADSVKGRFTISRDNAKNTVYLQMNSLKPEDTAVYYCAADVIWESDYWGQGTQVTVSS | high polyreactivity |
